Measurements published in patent US20170340748A1.
Like-named read-outs stand apart in the source and are kept apart here.

Legend:
T47D cells (human) [1] = biological target: T47D cells (human) (UniProt P15328); test: flow cytometry binding on T47D cells
T47D cells (human) [2] = biological target: T47D cells (human) (UniProt P15328); test: flow cytometry binding on T47D cells; remark: listed apart in the source

T47D cells (human), sequence (P15328 25-234, stated change not applied): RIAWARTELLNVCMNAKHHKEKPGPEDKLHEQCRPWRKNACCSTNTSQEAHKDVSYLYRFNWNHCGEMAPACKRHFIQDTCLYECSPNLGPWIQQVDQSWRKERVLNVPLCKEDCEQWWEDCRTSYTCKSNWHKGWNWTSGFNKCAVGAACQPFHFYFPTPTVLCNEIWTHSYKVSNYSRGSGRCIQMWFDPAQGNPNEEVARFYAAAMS

Substance: huMOV19
- EC50 (T47D cells (human) [1]): 0.144 nM
- EC50 (T47D cells (human) [2]): 0.314 nM
